# B1: 6*His-hIRF3 (natural protein)
# chain: MGTPKPRILPWLVSQLDLGQLEGVAWVNKSRTRFRIPWKHGLRQDAQQEDFGIFQAWAEATGAYVPGRDKPDLPTWKRNFRSALNRKEGLRLAEDRSKDPHDPHKIYEFVNSGVGDFSQPDTSPDTNGGGSTSDTQEDILDELLGNMVLAPLPDPGPPSLAVAPEPCPQPLRSPSLDNPTPFPNLGPSENPLKRLLVPGEEWEFEVTAFYRGRQVFQQTISCPEGLRLVGSEVGDRTLPGWPVTLPDPGMSLTDRGVMSYVRHVLSCLGGGLALWRAGQWLWAQRLGHCHTYWAVSEELLPNSGHGPDGEVPKDKEGGVFDLGPFIVDLITFTEGSGRSPRYALWFCVGESWPQDQPWTKRLVMVKVVPTCLRALVEMARVGGASSLENTVDLHISNSHPLSLTSDQYKAYLQDLVEGMDFQGPGES
# Biological target: GST-hAKT2 (human, UniProt P31751 1-481)
# Sequence (P31751 whole entry): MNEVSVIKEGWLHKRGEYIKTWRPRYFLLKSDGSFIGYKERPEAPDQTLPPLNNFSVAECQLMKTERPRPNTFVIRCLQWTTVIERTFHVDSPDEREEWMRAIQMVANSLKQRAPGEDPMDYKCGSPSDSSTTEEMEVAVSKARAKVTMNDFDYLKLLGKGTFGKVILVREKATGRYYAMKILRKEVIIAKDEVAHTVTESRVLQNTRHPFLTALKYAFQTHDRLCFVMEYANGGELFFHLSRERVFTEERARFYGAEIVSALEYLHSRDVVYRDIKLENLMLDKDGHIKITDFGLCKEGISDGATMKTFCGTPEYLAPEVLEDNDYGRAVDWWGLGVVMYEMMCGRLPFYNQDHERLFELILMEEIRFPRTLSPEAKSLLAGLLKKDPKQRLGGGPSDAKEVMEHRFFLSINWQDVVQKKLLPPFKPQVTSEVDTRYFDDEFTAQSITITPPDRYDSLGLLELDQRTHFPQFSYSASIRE
# Test: pull-down
binder,measurement,value
B1,binding result,binds

# Source: paper PMC8922272 (The EMBO Journal, 2022)
